# Assay results taken from patent US7560245B2, “Luciferase and methods for measuring intracellular ATP using the same” (Kikkoman Corporation, priority 1997, dated 2009).
# Substitutions are numbered along the chain they refer to. Where “and” joins values, the source holds several entries; their conditions need not be identical. Equal values may be shown once.
# B1: HIK: Polypeptide of SEQ ID NO:6; HEIKE firefly luciferase with Ala217 substituted by Ile and Glu490 by Lys (protein, listed as Luciola lateralis)
# chain: MENMENDENIVYGPEPFYPIEEGSAGAQLRKYMDRYAKLGAIAFTNALTGVDYTYAEYLEKSCCLGEALKNYGLVVDGRIALCSENCEEFFIPVLAGLFIGVGVAPTNEIYTLRELVHSLGISKPTIVFSSKKGLDKVITVQKTVTAIKTIVILDSKVDYRGYQSMDNFIKKNTPQGFKGSSFKTVEVNRKEQVALIMNSSGSTGLPKGVQLTHENIVTRFSHARDPIYGNQVSPGTAILTVVPFHHGFGMFTTLGYLTCGFRIVMLTKFDEETFLKTLQDYKCSSVILVPTLFAILNRSELLDKYDLSNLVEIASGGAPLSKEIGEAVARRFNLPGVRQGYGLTETTSAIIITPEGDDKPGASGKVVPLFKAKVIDLDTKKTLGPNRRGEVCVKGPMLMKGYVDNPEATREIIDEEGWLHTGDIGYYDEEKHFFIVDRLKSLIKYKGYQVPPAELESVLLQHPNIFDAGVAGVPDPIAGELPGAVVVLKKGKSMTEKEVMDYVASQVSNAKRLRGGVRFVDEVPKGLTGKIDGKAIREILKKPVAKM
# B2: HLK: Polypeptide of SEQ ID NO:4; HEIKE firefly luciferase with Ala217 substituted by Leu and Glu490 by Lys (protein, listed as Luciola lateralis)
# chain: B1 chain with I217L
# Key:
# [1] = Surfactant resistance: change of light emission with time, 0.4% benzalkonium chloride; format: biochemical; settings: for decay of light emission with time: FIG. 2 and 3
# Experimental: (§1) Enzyme samples were obtained by preparing luciferase samples derived from various firefly species using enzyme-diluted solution (1 mM EDTA, 1 mM 2-mercaptoethanol, 5% glycerol, 50 mM HEPES, (pH7.5)) to achieve 0.5 MLU/ml concentration.
# (§2) 50 μl of 0.4% benzalkonium chloride (25 mM Tricine at pH 7.75) and then 50 μl of the enzyme sample were added to 100 μl of substrate solution (4 mM ATP, 0.4 mM luciferin, 10 mM magnesium sulfate, 50 mM HEPES (pH 7.5)). After the solution was stirred for 5 seconds, the light emission was measured every second using Berthold Lumat LB-9501 for 1 minute.
# Along the vertical axis in this figure, the relative ratio of the light emission was plotted with the initial amount of light emitted considered to be 100% upon use of 25 mM Tricine (pH 7.75) instead of 0.4% benzalkonium chloride.
# (§3) To compare surfactant resistance of mutant luciferase with that of known luciferase, changes in emission with time were measured according to the aforementioned methods of measuring surfactant resistance.
# [2] = Comparison of emission rate (remaining activity) with 0.4% benzalkonium chloride; format: biochemical; settings: emission with 0.4% benzalkonium chloride divided by control (25 mM Tricine)
# Experimental: as §1, §2
# The influence of the enzyme solution, substrate solution and benzalkonium chloride used when measuring change with time, on the measurement values taken under actual emission measurement conditions, was examined.
# In addition, the emission rate (remaining activity) was calculated by dividing the light emission measured in the presence of 0.4% benzalkonium chloride by a control value. Here the control value was the light emission upon use of 25 mM Tricine at pH 7.75 instead of 0.4% benzalkonium chloride.
# [3] = as above; format: biochemical; settings: for Light emission (RLU) Without extraction reagent: 25 mM Tricine pH 7.75 instead of 0.4% benzalkonium chloride; for Light emission (RLU) Without extraction reagent / Light emission (RLU) With extraction reagent: 5 seconds waiting, 3 seconds measuring; for Light emission (RLU) With extraction reagent: 0.4% benzalkonium chloride
# S. aureus ATCC 25923 = assay: Detection of intracellular ATP, 0.25% BAC extraction reagent; format: cell-based, Staphylococcus aureus; settings: for Relative ratio (%): TCA extraction method = 100%
# Experimental: (§4) A standard technique used herein was TCA extraction method wherein intracellular ATP is extracted using trichloroacetic acid (TCA) and the amount of ATP extracted is measured using luciferin-luciferase luminescence reaction. TCA extraction method is excellent in extraction efficiency. Further in TCA extraction method no inhibition of luminescence reaction is caused by TCA because emission is measured after the sample containing TCA is diluted 1:100. Because of this dilution, however, TCA extraction method is complicated and can cause a decrease in the measuring sensitivity. Benzalkonium chloride (BAC, Japanese Pharmacopoeia) was used. ATP extraction reagent was prepared by dissolving this surfactant at 0.25% concentration into 25 mM Tricine (pH 7.75). Four strains, Escherichia coli (ATCC 25922), Staphylococcus aureus (ATCC 25923), Pseudomonas aeruginosa (ATCC 27853) and Enterococcus faecalis (ATCC 29212) were used. In standard techniques, a sample, undiluted solution, was prepared by culturing the prescribed microorganisms on a normal broth medium (produced by Eiken chemical Co., Ltd.) at 35° C. overnight. In the method of the present invention, a sample diluted solution was prepared by diluting an undiluted solution of the culture fluid to 1:100 with sterile water. Luminescence reagent was prepared by adding various luciferase to solution containing 0.15 mM luciferin, 6 mM EDTA, 15 mM magnesium acetate, 0.2 mM dithiothreitol, 0.5% BSA and 25 mM HEPES (pH 7.75). The amount of luciferase to be added was prepared such that the light emission produced when 100 μl of 2×10^−8 M ATP standard solution was added to 100 μl of the luminescence reagent would be the same amount of the light emission produced when a luminescence reagent attached to Luciferase LU (Kikkoman Corporation) was used. ATP extraction reagent 100 μl was added to 100 μl of a sample. The solution was allowed to stand for 20 seconds at room temperature. Then 100 μl of the luminescence reagent was added to this solution. Immediately after addition, the light emission was measured using Lumat LB-9501 produced by Berthold. 10% trichloro acetate solution 100 μl was added to 100 μl of a sample and the solution was allowed to stand for 1 minute. 25 mM Tricine (pH 7.75) 9.8 ml was added to this extract, and then the extract was well stirred. 25 mM Tricine (pH 7.75) and 100 μl of a luminescence reagent attached to CheckLite LU (produced by Kikkoman Corporation) were added to 100 µl of the sample. Immediately after addition, the light emission was measured using Lumat LB-9501 produced by Berthold. The relative ratio of the light emissions obtained by the use of the luminescence reagents using various luciferase types is also shown in these tables. Here the light emission obtained by the standard technique (TCA extraction method) was defined as 100%.
# P. aeruginosa ATCC 27853 = assay: as above; format: cell-based, Pseudomonas aeruginosa; settings: for Relative ratio (%): TCA extraction method = 100%
# Experimental: as §4
# [4] = system: Escherichia coli, Staphylococcus aureus, Pseudomonas aeruginosa and Enterococcus faecalis; assay: Detection of intracellular ATP, summary over the four strains; format: cell-based; settings: 0.25% BAC extraction reagent
# Experimental: as §4, with “In standard techniques, a sample, undiluted solution, was prepared by culturing the prescribed microorganisms on a normal broth medium (produced by Eiken chemical Co., Ltd.) at 35° C. overnight. In the method of the present invention, a sample diluted solution was prepared by diluting an undiluted solution of the culture fluid to 1:100 with sterile water.” left out, “ATP extraction reagent 100 μl was added to 100 μl of a sample. The solution was allowed to stand for 20 seconds at room temperature.” left out, “10% trichloro acetate solution 100 μl was added to 100 μl of a sample and the solution was allowed to stand for 1 minute. 25 mM Tricine (pH 7.75) 9.8 ml was added to this extract, and then the extract was well stirred.” left out, “Here the light emission obtained by the standard technique (TCA extraction method) was defined as 100%.” left out
# [5] = Comparison of IC50: benzalkonium chloride concentration inactivating luciferase by 50%; format: biochemical; settings: 10 minutes contact at room temperature, 0.01 to 0.1% benzalkonium chloride
# Experimental: Benzalkonium chloride and various luciferases were contacted with each other for 10 minutes. Then the benzalkonium chloride concentration (IC50), at which activity is inactivated by 50% was determined. Equal amounts of luciferase solution prepared at this concentration and 0.01 to 0.1% benzalkonium chloride were mixed, and then allowed to stand for 10 minutes at room temperature. Subsequently, 100 μl of substrate solution was added to the mixture. Immediately after addition, the light emission was measured using Berthold Lumat LB-9501.
# E. coli ATCC 25922 = assay: Detection of intracellular ATP, 0.25% BAC extraction reagent; format: cell-based, Escherichia coli; settings: for Relative ratio (%): TCA extraction method = 100%
# Experimental: as §4
# E. faecalis ATCC 29212 = assay: as above; format: cell-based, Enterococcus faecalis; settings: for Relative ratio (%): TCA extraction method = 100%
# Experimental: as §4
# [6] = Surfactant resistance: change of light emission with time, 0.8% benzethonium chloride; format: biochemical; settings: FIG. 4
# Experimental: as §1
# […] After the solution was stirred for 5 seconds, the light emission was measured every second using Berthold Lumat LB-9501 for 1 minute.
# as §3
Molecule,initial light emission ([1]; FIG. 2),decay of light emission with time [1],Emission rate (remaining activity) [2],Light emission (RLU) Without extraction reagent [3],Light emission (RLU) With extraction reagent [3],luciferase activity (remaining) ([3]; in the presence of 0.1% benzalkonium chloride),Measured value (RLU) (S. aureus ATCC 25923),Relative ratio (%) (S. aureus ATCC 25923),Measured value (RLU) (P. aeruginosa ATCC 27853),Relative ratio (%) (P. aeruginosa ATCC 27853),emission of the luminescence reagent [4],IC50 (benzalkonium chloride concentration at which activity is inactivated by 50%) [5],Measured value (RLU) (E. coli ATCC 25922),Relative ratio (%) (E. coli ATCC 25922),Measured value (RLU) (E. faecalis ATCC 29212),Relative ratio (%) (E. faecalis ATCC 29212),decay of light emission with time [6],"improvement of initial light emission ([1]; compared with HEIKE L mutant, FIG. 3)"
"North American firefly: luciferase derived from North American firefly, a commercial product (Sigma, L-9506) [reference compound]",low in the initial light emission,decayed rapidly,21.6%,452563 RLU,97790 RLU,about 20%,163 RLU,(0.1) %,553 RLU,(0.3) %,No emission was observed,0.014%,153 RLU,(0.1) %,113 RLU,(0.1) %,,
B1,,decayed more slowly than that of the HEIKE I mutant,89.3%,386429 RLU,345159 RLU,,76533 RLU,(58.8) %,131134 RLU,(78.0) %,more intense than that from wild-type HEIKE luciferase and thermostable luciferase,0.032%,97073 RLU,(73.1) %,7914 RLU,(63.7) %,more slowly than that of HEIKE I mutant,
B2,,slower decay in the light emission,101.7% and ~100%,390289 RLU,396764 RLU,,72182 RLU,(55.4) %,131815 RLU,(78.4) %,more intense than that from wild-type HEIKE luciferase and thermostable luciferase,0.035%,87981 RLU,(66.3) %,7998 RLU,(64.4) %,slower decay in light emission than that of HEIKE L mutant,about 20%
